Assay results reported in the domain aggregation screens of Martell et al. (2025).

Experiment: soluble fraction after stress (log2 fold change); higher = more stays soluble; pooled small domains, quantitative proteomics
Conditions: stress: 75 degC
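Also: 20 min heating vs room temperature control held 20 min.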

Sequence	soluble fraction (log2)
HMKKVIEFKDVSFAFEKKPILQDFNLLVQNKDRIGIVGDNGVGKSTLLNLIAERLQPQSGQVII	0.111
HMKKVSVKPILELRAAGISMRKIETLMHVSRHTISAIYKAADAYSISWDNVKDFDEDKIYEMLFPPTP	-4.13
HMKKYEIIFNDLKQSIVNGKYSNEERLPPEETLAKKYQTSRVPVQQALNALVGIGMVKRIAGSGTYVTY	-0.394
HMKKYFPPKSRFNPNKYLLKDWMALGLSEKQSQSILNFIQRGIYSNSALEKIYVMPEEVFTLIKDSTYYEE	-1.38
HMKKYIEIYNYYKQLIESEQLKSGDKMPSVRKATKIFNVSKTTVQNAYFDLQADGYIIAAPKSGYYVTEM	-1.07
HMKKYLNIYNIIVNKIESKEYQSNDKLPSEKELMDQYNVSRDTVRKSLNMLEQNGYIQKTKGKGSFVLDIN	-0.865
HMKLEEITIIVPSLRLDNFVSDLARTSRSKAVQIIDSERVFINGQNETKASKQVKLGDVITSA	-0.211
HMKLHPRDQERTRAISARGERLYAVTVGDLRRRIGEMLEWFGRQIESQEPMRVAKAARRITDFFDQVEAFT	-2.5
HMKLIRLGKAAGELNVGMSTLAEFLQSKGHSVDPNPNTKLTPEQYALLRMEFAADQTLKKLTKQP	0.452
HMKLKHANGNHPLTQQEKQNMIEEAAKHYGDYMTALGFDWKQDPNSSDTPMRVAKAFVNDLAEGVY	0.0234
HMKLLLSANISKLRKKYSMTQEQLAEALGVTFASVSKWERGVATPELKLIAEMADMFEVSIDALIGYEFRN	-1.87
HMKLPIEKESYRIIWDLEEESFRIRLKISENSPQEEKNILINQAIEDIENITGEPIDKSPYYVLYE	-0.627
HMKLPNSFGSIQKLSGNRRKPYRVVKTIGWDENGKQIRKTLGYYETRAKALQELALFNEKPYD	-1.72
HMKLTALWTANPKISAPIYSEPSTQSKTLGRIYQGASVKVYSFDPEWAYINSSGVVGYVLRRHLE	-2.43
HMKLTINIDAAHDGKTIKQLFAEKGYSLELIKKFKYDGAIEVNGERKTVRWVLREGDLLVLEAN	-2.42
HMKLTNIQYETLKVVVESRAKIDEEEGITIKLEDIKKYIDQAISFTGLVGDDEDYKKLFADMEYRFKIQ	-2.96
HMKLVAAGYHQNRLLVLLGIQAEELQAKRLLASFDRFRGREATPKPPIHDSARRWLRDTYHHVMNQVPVEL	-1.59
HMKMHKIIKERRLALNFTQEQVAKYLGVTTPAVNKWEKGISYPDISLLPALARLLDTDLNTLLSF	-4.38
HMKMLPAEVLTHPAVVALIERGAPTGSITPEEVRQASEDAAVEPRHLKALLAHLSALGISVQIP	-0.303
HMKMLSIQRREAIRALLLEKESITIAEVMEKFQISVETARRDFDALADEGFLNKVYGGATLKK	-1.68
HMKMPNGYGSITKLSGKRRKPWRVRKTAGWELDAKTQKLKQTYINIGYYETRADAMSALVSYNEDP	-1.01
HMKMQPVISQGVLYINNVTDVRTIEVFDISGRIVADAAASTTVNIAHLNEGPYIVKVTTVNGIESIKILNK	-2.5
HMKNAMTDIYLEEIKKILTKNEFLVYTLRELNNFSVQFITDNYDLSEKTIYNSVYRAKKKIDRHFT	-0.159
HMKNDKLLIFMELKGISRTQLSKSTGIPASTLGRIINGDVQKIKAVYMEAIANALDTSIHTIFDV	-1.6
HMKNDNIHMMASKINGIALEVGVLTPGMHPKNDLSEGEVGYIVTNLKTTREAKVGDTVTLAKKPAATPLPG	0.322
HMKNETFAITSEDAGKRLDVWLTNILGDYSRSYVERLVEQGNVTVGGKTVKAGYKLKAGDSVQVSIPGPK	0.144
HMKNISSEEDREKALSLGITQEFIDNKGRYFITVPNKPSNFKEQALNIQKEISEQIDTVINKRFEF	0.0903
HMKNLDILTPKEIEVLNLVAKGYSNSKISKELDIAEVTVKKHIGSMFQKLDVKDRLSLALIL	-0.591
